Results from the supplement of paper PMC7877785.
± gives the uncertainty stated by the source.

Test: self-splicing fitness, log relative to wild type (ln ratio); higher = more splicing; Tetrahymena group I intron in knt gene, E. coli kanamycin selection, DiMSum; sequences stand for … in CUCUCU…GGAGGGAAAAGUUAUCAGGCAUGCACCUGGUAGCUAGUCUUUAAACCAAUAGAUUGCAUCGGUUUAAAAGGCAAGACCGUCAAAUUGCGGGAAAGGGGUCAACAGCCGUUCAGUACCAAGUCUCAGGGGAAACUUUGAGAUGGCCUUGCAAAGGGUAUGGUAAUAAGCUGACGGACAUGGUCCUAACCACGCAGCCAAGUCCUAAGUCAACAGAUCUUCUGUUGAUAUGGAUGCAGUUCACAGACUAAAUGUCGGUCGGGGAAGAUGUAUUCUUCUCAUAAGAUAUAGUCGGACCUCUCCUUAAUGGGAGCUAGCGGAUGAAGUGAUGCAACACUGGAGCCGCUGGGAACUAAUUUGUAUGCGAAAGUAUAUUGAUUAGUUUUGGAGUACUCGUGGUCG
In short: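 DiMSum derived fitness as the error-weighted combination of fold changes across replicates, kanamycin versus no kanamycin, normalised to wild type. E. coli BL21(DE3) held the library, which randomised all eight P1ex-region intron nucleotides within the knt kanamycin-resistance gene on pET-22b(+). Six replicate transformations grew overnight at 37°C or 30°C on LB agar with or without 25 μg/mL kanamycin, also containing 100 μg/mL carbenicillin, 50 μM IPTG and 0.2% rhamnose, and pooled colonies were amplicon-sequenced on an Illumina HiSeq 2500.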

| Sequence | self-splicing fitness (ln) (30 °C) | self-splicing fitness (ln) (37 °C) |
| --- | --- | --- |
| CGCCAGCAAUAUUACGACUA | -2.15 ± 0.2 | -2.13 ± 0.2 |
| CUCCAGCAAUAUUACGGUAG | -3.88 ± 0.19 | -3.24 ± 0.27 |
| UCGUAGCAAUAUUACGAACG | -2.5 ± 0.21 | -1.94 ± 0.23 |
| CAUCAGCAAUAUUACGGGCU | -4.04 ± 0.31 | -2.48 ± 0.2 |
| CCCCAGCAAUAUUACGCCGU | -3.04 ± 0.16 | -2.23 ± 0.21 |
| GGUUAGCAAUAUUACGUUAA | -2.32 ± 0.19 | -0.699 ± 0.16 |
| UUAGAGCAAUAUUACGGCUG | -0.433 ± 0.12 | 0.354 ± 0.17 |
| GCGAAGCAAUAUUACGAGAU | -2.89 ± 0.2 | -1.86 ± 0.22 |
| AUCUAGCAAUAUUACGCACG | -1.37 ± 0.15 | -0.353 ± 0.14 |
| GUCGAGCAAUAUUACGAAUA | -2.42 ± 0.36 | -2.1 ± 0.34 |
| CGACAGCAAUAUUACGAUAG | -0.383 ± 0.06 | -0.728 ± 0.07 |
| GACUAGCAAUAUUACGAAAG | -2.97 ± 0.16 | -1.8 ± 0.2 |
| UAUCAGCAAUAUUACGGAGC | -3.14 ± 0.17 | -3.71 ± 0.19 |
| CCUAAGCAAUAUUACGCUCC | -4.01 ± 0.46 | -2.97 ± 0.29 |
| GUUGAGCAAUAUUACGACGG | -3.52 ± 0.3 | -1.12 ± 0.28 |
| GCGUAGCAAUAUUACGUGAG | -2.75 ± 0.17 | -2.67 ± 0.17 |
| UCAUAGCAAUAUUACGUCGC | -2.62 ± 0.3 | -2.78 ± 0.34 |
| UGCUAGCAAUAUUACGGGGA | -0.989 ± 0.14 | 0.0335 ± 0.14 |
| AGCGAGCAAUAUUACGCUAU |  | -2.87 ± 0.24 |
| GCGUAGCAAUAUUACGUCAC |  | -0.245 ± 0.37 |
| AAUGAGCAAUAUUACGGCAA | -2.55 ± 0.34 | -1.85 ± 0.35 |
| GCUUAGCAAUAUUACGUUUG | -2.23 ± 0.12 | -1.58 ± 0.14 |
| GCCGAGCAAUAUUACGUAUU | -3.72 ± 0.21 | -1.9 ± 0.15 |
| GAGAAGCAAUAUUACGCUUC | -2.79 ± 0.26 | -2.89 ± 0.38 |
| UGGGAGCAAUAUUACGAAUG | -1.99 ± 0.21 | -2.07 ± 0.33 |

| Sequence | self-splicing fitness (ln) (30 °C) | self-splicing fitness (ln) (37 °C) |
| --- | --- | --- |
| UGUAAGCAAUAUUACGUCCU | -0.564 ± 0.074 | 0.215 ± 0.079 |
| GAGAAGCAAUAUUACGAGCU | -0.838 ± 0.12 | -0.347 ± 0.11 |
| UGGCAGCAAUAUUACGGCAG | -0.148 ± 0.12 | 0.163 ± 0.14 |
| UUAUAGCAAUAUUACGGUGG | -0.966 ± 0.11 | -0.924 ± 0.12 |
| GGGGAGCAAUAUUACGACCG | -1.02 ± 0.41 |  |
| UGCCAGCAAUAUUACGAGCG | -0.919 ± 0.066 | -0.309 ± 0.079 |
| GUAGAGCAAUAUUACGCCAU | -1.22 ± 0.39 |  |
| GGCAAGCAAUAUUACGCCGA | -2.14 ± 0.32 | -0.337 ± 0.25 |
| ACUUAGCAAUAUUACGAUUC | -2.3 ± 0.098 | -0.823 ± 0.1 |
| UCUAAGCAAUAUUACGUUUU | -3.43 ± 0.19 | -3.06 ± 0.29 |
| UCAAAGCAAUAUUACGUAAA | -1.73 ± 0.13 | -1.94 ± 0.21 |
| AACCAGCAAUAUUACGAUAC | -2.38 ± 0.084 | -1.39 ± 0.11 |
| UAUGAGCAAUAUUACGCAAU | -3.54 ± 0.25 | -2.32 ± 0.18 |
| CCGCAGCAAUAUUACGCGAC | -2.84 ± 0.17 | -2.09 ± 0.26 |
| GCUGAGCAAUAUUACGUCAG | -3.35 ± 0.24 | -2.15 ± 0.26 |
| UUAUAGCAAUAUUACGGUCA | -0.871 ± 0.13 | -0.305 ± 0.17 |
| UAAGAGCAAUAUUACGCACA |  | -1.42 ± 0.33 |
| GAAGAGCAAUAUUACGGGUC | -1.86 ± 0.27 |  |
| UGACAGCAAUAUUACGGGGG | -2.61 ± 0.19 | -2.93 ± 0.2 |
| ACGUAGCAAUAUUACGGUCC | -1.64 ± 0.15 | -0.357 ± 0.15 |
| AGCCAGCAAUAUUACGCCCU | 0.0781 ± 0.11 | 0.234 ± 0.13 |
| CCGAAGCAAUAUUACGCUGC | -2.89 ± 0.34 | -2.4 ± 0.45 |
| CUAAAGCAAUAUUACGACAC |  | -1.88 ± 0.47 |
| AGCCAGCAAUAUUACGAAUC |  | -1.94 ± 0.39 |
| UUUCAGCAAUAUUACGCUUU | -2.69 ± 0.14 | -1.52 ± 0.13 |

| Sequence | self-splicing fitness (ln) (30 °C) | self-splicing fitness (ln) (37 °C) |
| --- | --- | --- |
| CCUGAGCAAUAUUACGAAAA | -3.64 ± 0.35 | -2.52 ± 0.37 |
| CCACAGCAAUAUUACGCGGC | -3.19 ± 0.24 | -3.09 ± 0.35 |
| CGCUAGCAAUAUUACGAGGA | -1.5 ± 0.18 | -2.97 ± 0.29 |
| UUAUAGCAAUAUUACGACUU | -1.85 ± 0.28 | -0.00223 ± 0.29 |
| CAACAGCAAUAUUACGGGGG | -2.07 ± 0.13 | -1.08 ± 0.1 |
| GGAGAGCAAUAUUACGUUCC |  | -2 ± 0.28 |
| AUGGAGCAAUAUUACGGAAU | -2.66 ± 0.32 | -2.02 ± 0.47 |
| CGUUAGCAAUAUUACGUCGA | -2.71 ± 0.19 | -1.16 ± 0.2 |
| AGCCAGCAAUAUUACGCGAC | -0.935 ± 0.13 | -1.78 ± 0.2 |
| GAGAAGCAAUAUUACGAUGC | -1.06 ± 0.15 | -0.435 ± 0.21 |
| AUCCAGCAAUAUUACGCUAC | -4.03 ± 0.3 | -1.95 ± 0.24 |
| UGUCAGCAAUAUUACGCUCC | -0.598 ± 0.29 | -1.2 ± 0.34 |
| CCCAAGCAAUAUUACGUGCA | -3.83 ± 0.23 | -2.57 ± 0.16 |
| AGUAAGCAAUAUUACGACAU | -0.346 ± 0.013 | -0.078 ± 0.033 |
| UAACAGCAAUAUUACGGUAC | -3.84 ± 0.2 | -2.06 ± 0.13 |
| GGCUAGCAAUAUUACGAUAC | -1.71 ± 0.16 | -0.0528 ± 0.14 |
| UAUAAGCAAUAUUACGAGGC |  | -2.5 ± 0.39 |
| CGCGAGCAAUAUUACGUUCC | -3.49 ± 0.32 |  |
| UAAUAGCAAUAUUACGCUUG | -0.7 ± 0.082 | -0.621 ± 0.096 |
| GCGGAGCAAUAUUACGACAC | -0.913 ± 0.22 |  |
| GGCUAGCAAUAUUACGUUCG | -0.933 ± 0.097 | -0.427 ± 0.12 |
| CCUGAGCAAUAUUACGAGGG | -3.48 ± 0.19 | -2.22 ± 0.23 |
| GAAGAGCAAUAUUACGGUAG | -3.51 ± 0.17 | -3.01 ± 0.22 |
| GCGUAGCAAUAUUACGACUG | -1.54 ± 0.17 | -0.415 ± 0.17 |
| ACGGAGCAAUAUUACGUUUA | -3.14 ± 0.2 | -2.68 ± 0.21 |

| Sequence | self-splicing fitness (ln) (30 °C) | self-splicing fitness (ln) (37 °C) |
| --- | --- | --- |
| GAAAAGCAAUAUUACGCACA | -0.807 ± 0.093 | -0.0907 ± 0.14 |
| GCGUAGCAAUAUUACGUCCG | -2.52 ± 0.26 | -1.48 ± 0.21 |
| GGCCAGCAAUAUUACGGAUC | -0.753 ± 0.092 | -0.347 ± 0.11 |
| AGUCAGCAAUAUUACGCCAU | -2.86 ± 0.25 | -1.1 ± 0.21 |
| CCCUAGCAAUAUUACGAUCC |  | -1.26 ± 0.45 |
| AGCUAGCAAUAUUACGUCCU | -0.19 ± 0.083 | 0.188 ± 0.11 |
| GCUGAGCAAUAUUACGUGCG | -1.62 ± 0.099 | -1.01 ± 0.14 |
| UUUAAGCAAUAUUACGGUGA | -1.11 ± 0.11 | -0.554 ± 0.12 |
| GUCGAGCAAUAUUACGACAG | -2.66 ± 0.23 | -1.75 ± 0.28 |
| UGAGAGCAAUAUUACGCACG | -2.77 ± 0.19 | -0.671 ± 0.2 |
| CGCCAGCAAUAUUACGUGAG | -1.37 ± 0.078 | -1.25 ± 0.11 |
| UCGCAGCAAUAUUACGAGAG | -4.55 ± 0.36 | -2.39 ± 0.18 |
| CCCCAGCAAUAUUACGAGGG | -3.83 ± 0.15 | -2.78 ± 0.18 |
| ACAUAGCAAUAUUACGACAC | -1.62 ± 0.15 | -1.29 ± 0.21 |
| CCUCAGCAAUAUUACGGGGU | -3.88 ± 0.15 | -3.49 ± 0.2 |
| UUCGAGCAAUAUUACGUAGG | -2.9 ± 0.2 | -1.52 ± 0.19 |
| GUGUAGCAAUAUUACGGGGA | -1.9 ± 0.28 | -2.41 ± 0.25 |
| CUAUAGCAAUAUUACGUUAC | -3.45 ± 0.25 | -2.14 ± 0.33 |
| UCCUAGCAAUAUUACGAGCU | -3.57 ± 0.37 | -1.99 ± 0.38 |
| CUUGAGCAAUAUUACGAGCU | -1.6 ± 0.46 |  |
| UUUUAGCAAUAUUACGGUGA | -0.38 ± 0.15 | 0.0249 ± 0.14 |
| UGUCAGCAAUAUUACGUGCU | -3.51 ± 0.25 | -2.23 ± 0.24 |
| UUACAGCAAUAUUACGGCUG | -2.21 ± 0.17 | -1.42 ± 0.2 |
| GCAUAGCAAUAUUACGACUU | -0.481 ± 0.078 | -0.0367 ± 0.089 |
